The values below come from paper PMC11831279.

Assay [1] concerns the target PEDV spike ectodomain (S-ECD, amino acids 1 to 1325) fused with a T4 foldon at the C-terminus (porcine epidemic diarrhea virus (strain dndz) | bacteriophage T4 (printed as T4)). Description: SEC.
Assay [2] has the same target. The assay can be described thus: transmission electron microscopy; TEM of the purified S protein.

On to “PEDV spike ectodomain (S-ECD, amino acids 1 to 1325) fused with a T4 foldon at the C-terminus (domain or fragment)”, for which the stoichiometry N in assay [1] and in assay [2] was 3 throughout.
